Numbering of substitutions follows the chain as printed.
B1: 2190-B01 (antibody, V domains shown)
VH: EVQLVESGGGLVQPGGSLRLSCAASGFNISSYWIHWVRQAPGKGLEWVGVITPSGGYTYYADSVKGRFTISADTSKNTAYLQMNSLRAEDTAVYYCARDLGGGYWVGFFDYWGQGTLVTVSS
VL: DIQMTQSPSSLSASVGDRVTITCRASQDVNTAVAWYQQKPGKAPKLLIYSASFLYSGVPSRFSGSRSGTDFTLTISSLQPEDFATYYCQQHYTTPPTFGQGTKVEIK
notes: also called Antibody 16
B2: 11D6 (antibody, V domains shown)
VH: AVTLDESGGGLQTPGGTLSLVCKASGFTFSSFNMFWVRQAPGEGLEWVAYIRNDGRSTSYGPAVKGRATISRDNGQSTVRLQLNNLRAEDTGTYFCAKTTCVGSGGCIDTWGHGTEVIVSS
VL: ALTQPSSVSANPGETVEITCSGGNSDYGWFQQKSPGSAPVTVIYRNNQRPSDIPSRFSGSGSGSTNTLTITGVQAEDEAIYYCGNVDFTDDVFGAGTTLTVL
notes: Chicken HybriFree-derived antibody; also called Antibody 32
B3: 9H1 (antibody, V domains shown)
VH: AVTLDESGGGLQTPGGALSLVCKGSGFTFSDYGMGWMRQAPGKGLQYVARINSAGSDTNYGSAVKGRATISRDDGQSTVRLQLSSLRAEDTGIYYCTRGGGGASIDGWGHGTEVIVSS
VL: ALTQPSSVSANPGETVKITCSGGGSYYGSYYYGWYQQKSPGSAPVTLIYNNNNRPSDIPSRFSGSTSGSTGTLTITGVRAEDEAVYYCGSFDSSTDAIFGAGTTLTVL
notes: Chicken HybriFree-derived antibody; also called Antibody 44
B4: 10H1 (antibody, V domains shown)
VH: AVTLDESGGGLQTPGGALSLVCKASGFTFSGYGMGWMRQAPGKGLEYVARINSAGSDTDYGAAVKGRATISRDNGQSTVRLQLNNLRAEDTATYFCTRGGGGASIDGWGHGTEVIVSS
VL: B3 VL with S25N, S39A, L47V, D57N, T66K, R79Q, Y87F, S90G, T95S
notes: Chicken HybriFree-derived antibody; also called Antibody 45
B5: 10E10 (antibody, V domains shown)
VH: AVTLDESGGGLQTPGGGLSLVCKASGFTFSSYGMGWMRQAPGKGLEFVARINSGGSSYTDYGSAVKGRATISRDDGQSTVRLQLNNLRAEDTGIYYCTRGGGGASIDGWGHGTEVIVSS
VL: B3 VL with S25N, Y27A, V45L, L47V, N51S, T66L, Y87F, S90G
notes: Chicken HybriFree-derived antibody; also called Antibody 46

How the values were obtained:
human BCMA-Fc [1] = biological target: T1, human BCMA-Fc (human, UniProt Q02223 1-54); assay: ELISA, coated huBCMA-Fc
T1 construct: Bought from R&D Systems; also called huBCMA-Fc; not shown: Fc part not described
T1 sequence: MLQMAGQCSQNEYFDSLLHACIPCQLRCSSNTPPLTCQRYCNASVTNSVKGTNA

cyno BCMA-Fc = biological target: T2, cyno BCMA-Fc (cynomolgus monkey, UniProt Q02223 1-54 (human entry)); assay: ELISA, coated cynoBCMA-Fc
T2 construct: Custom protein production; also called cynomolgus BCMA-Fc; not shown: Fc part not described

human BCMA-Fc [2] = biological target: T1, human BCMA-Fc; assay: SPR Biacore, antibody captured, 25 C
Method: (§1) Anti-Fab or anti-Fc polyclonal antibodies were immobilized onto a CM5 chip (GE Life Sciences) using amine coupling chemistry (from Amine Coupling Kit, GE Life Sciences). The immobilization steps were carried out at a flow rate of 25 μL/min in 1×HBS-EP+ buffer (GE Life Sciences; 10× Stock diluted before use). The sensor surfaces were activated for 7 min with a mixture of NHS (0.05 M) and EDC (0.2 M). The anti-Fab or anti-Fc antibodies were injected over all 4 flow cells at a concentration of 25 μg/ml in 10 mM sodium acetate, pH 4.5, for 7 min. Ethanolamine (1 M, pH 8.5) was injected for 7 min to block any remaining activated groups.
(§2) Off-rate and kinetic binding experiments were performed at 25° C. using 1×HBS-EP+ buffer. […] After capturing ligand (antibody) on the anti-Fab or anti-Fc surface, the analyte (human BCMA-Fc, cyno BCMA-Fc, or human BCMA from R&D Systems, custom protein production, or Sigma Aldrich, respectively) was bound for 180 seconds, followed by a 600 second dissociation phase at a flow rate of 50 μL/min. Between each ligand capture and analyte binding cycle, regeneration was carried out using 2 injections of 10 mM glycine pH 2.0 for 30 seconds at 30 μL/min, followed by a 30 second buffer wash step.
(§3) The data was fit with the Biacore T200 Evaluation software, using a 1-1 Langmuir binding model. KD (affinity, nM) was determined as a ratio of the kinetic rate constants calculated from the fits of the association and dissociation phases.

cynomolgus BCMA on cells [3] = biological target: T3, cynomolgus BCMA on cells (cynomolgus monkey, UniProt Q02223 1-184 (human entry)); assay: FACS, 293T-cynoBCMA cells; NSB = non-saturating binding
human BCMA on cells = biological target: T4, human BCMA on cells (human, UniProt Q02223 1-184); assay: FACS, NCI-H929 cells
T4 construct: also called hBCMA; BCMA on NCI-H929, ARP-1, OPM-2, U266B1, MM.1S, RPMI-8226 cells
T4 sequence: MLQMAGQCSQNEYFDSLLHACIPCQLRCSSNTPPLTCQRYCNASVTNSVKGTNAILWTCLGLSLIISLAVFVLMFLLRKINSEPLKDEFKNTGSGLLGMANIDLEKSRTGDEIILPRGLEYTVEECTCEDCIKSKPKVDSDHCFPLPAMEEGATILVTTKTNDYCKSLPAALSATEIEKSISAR
Method: (§4) Variants for which sufficient protein was purified in secondary screening were tested in a fluorescence-activated cell sorting (FACS) cell-binding assay. […] 6-12 point dilutions of anti-BCMA variants starting from concentrations of about 100-200 nM antibody were dispensed into each well using a BioMekFX (Beckman Coulter). Cells were then incubated on ice for 1 hr, washed with FACS buffer and incubated for 1 hr on ice with […] FACS buffer containing 2.5 μg/ml Alexa647-conjugated Goat Anti-Human IgG dispensed using BioMekFX (Beckman Coulter). Cells were then washed 2× with FACS buffer and fixed for 10 minutes in […] PBS with 2% paraformaldehyde (PFA) prior to fluorescence detection. Samples were acquired using a Beckton Dickinson LSRII FACS. Geometric Mean Fluorescence Intensity of BCMA antibody binding was analyzed using FlowJo® software (Tree Star, Inc.).

cynomolgus BCMA on cells [4] = biological target: T3, cynomolgus BCMA on cells; assay: FACS, 293T-cynoBCMA cells
Method: as §4

human BCMA-Fc [5] = biological target: T1, human BCMA-Fc; assay: SPR Biacore, human BCMA-Fc kinetics
Method: as §1, §2, §3

rat BCMA on cells = biological target: T5, rat BCMA on cells (rat); assay: FACS, 293T-ratBCMA cells
T5 construct: whole, on cells

T3 sequence (Q02223 other isoform, or with tags, fused parts or gaps): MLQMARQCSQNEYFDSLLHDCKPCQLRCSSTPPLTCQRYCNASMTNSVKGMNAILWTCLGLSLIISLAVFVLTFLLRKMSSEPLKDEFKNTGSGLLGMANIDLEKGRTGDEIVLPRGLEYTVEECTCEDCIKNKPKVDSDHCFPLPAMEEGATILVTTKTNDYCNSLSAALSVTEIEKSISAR

Binder	Bmax (human BCMA-Fc [1])	EC50 (human BCMA-Fc [1]) [nM]	Bmax (cyno BCMA-Fc)	EC50 (cyno BCMA-Fc) [nM]	Kd (human BCMA-Fc [2]) [nM]	koff (human BCMA-Fc [2]) [s⁻¹]	kon (human BCMA-Fc [2]) [M⁻¹ s⁻¹]	binding result (cynomolgus BCMA on cells [3])	Bmax (human BCMA on cells) [MFI]	Kd (human BCMA on cells) [nM]	Bmax (cynomolgus BCMA on cells [4]) [MFI]	Kd (cynomolgus BCMA on cells [4]) [nM]	Kd (human BCMA-Fc [5]) [nM]	koff (human BCMA-Fc [5]) [s⁻¹]	kon (human BCMA-Fc [5]) [M⁻¹ s⁻¹]	Bmax (rat BCMA on cells) [MFI]	Kd (rat BCMA on cells) [nM]
B1	3.68e+06	0.3	2.15e+06	19.3	5.23	0.000712	136000	binds									
B2									26400	47.5	27700	12.2	0.313	0.000318	1.02e+06		
B3									6160	1	11400	0.39				3450	1.32
B4									22500	0.36	21200	0.25	2.92	17.9	6.14e+09	4350	0.39
B5									3440	4.67	4540	18.9				906	6.83
